# Measured values from article PMC9482650, “Quantitative fragmentomics allow affinity mapping of interactomes” (Nature Communications, 2022).
# T1: GRIP1_7, Q9Y3R0
# T1 sequence (Q9Y3R0 999-1096, limits assumed, looked up): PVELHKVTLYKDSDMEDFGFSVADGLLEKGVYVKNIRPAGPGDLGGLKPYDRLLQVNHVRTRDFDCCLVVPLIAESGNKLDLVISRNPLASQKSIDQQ
# T2: GRIP1_3, Q9Y3R0
# T2 sequence (Q9Y3R0 247-346, limits assumed, looked up): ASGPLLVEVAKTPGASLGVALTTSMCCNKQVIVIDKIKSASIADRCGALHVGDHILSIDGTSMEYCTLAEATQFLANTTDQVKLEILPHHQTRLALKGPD
# T3: APBA1_2, Q02410
# T3 sequence (Q02410 742-832, limits assumed, looked up): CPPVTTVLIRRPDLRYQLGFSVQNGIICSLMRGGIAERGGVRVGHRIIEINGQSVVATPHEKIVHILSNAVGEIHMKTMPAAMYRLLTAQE
# T4: SYNJ2BP, P57105
# T4 sequence (P57105 8-110, limits assumed, looked up): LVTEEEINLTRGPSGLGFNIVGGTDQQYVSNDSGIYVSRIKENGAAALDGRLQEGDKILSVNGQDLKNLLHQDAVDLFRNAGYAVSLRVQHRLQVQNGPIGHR
# T5: APBA3_1, O96018
# T5 sequence (O96018 389-490, limits assumed, looked up): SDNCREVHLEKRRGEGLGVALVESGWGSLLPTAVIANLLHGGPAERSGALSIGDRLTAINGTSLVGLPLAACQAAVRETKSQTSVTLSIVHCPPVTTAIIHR
# T6: PDZD7_3, Q9H5P4
# T6 sequence (Q9H5P4 857-944, limits assumed, looked up): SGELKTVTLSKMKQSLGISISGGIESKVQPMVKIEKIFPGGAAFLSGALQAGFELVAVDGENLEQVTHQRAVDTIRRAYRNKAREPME
# T7: DFNB31_3, Q9P202
# T7 sequence (Q9P202 811-907, limits assumed, looked up): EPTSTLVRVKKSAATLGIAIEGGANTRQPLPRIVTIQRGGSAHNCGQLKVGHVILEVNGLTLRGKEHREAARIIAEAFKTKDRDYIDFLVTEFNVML
# T8: DFNB31_1, Q9P202
# T8 sequence (Q9P202 135-233, limits assumed, looked up): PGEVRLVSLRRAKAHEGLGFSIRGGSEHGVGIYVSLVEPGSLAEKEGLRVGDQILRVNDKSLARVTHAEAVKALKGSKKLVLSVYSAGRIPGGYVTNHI
# T9: PTPN13_1, Q12923
# T9 sequence (Q12923 1088-1188, limits assumed, looked up): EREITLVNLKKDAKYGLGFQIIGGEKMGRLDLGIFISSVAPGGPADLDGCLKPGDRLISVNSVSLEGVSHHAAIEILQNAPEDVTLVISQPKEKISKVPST
# T10: MPP6, Q9NZW5
# T10 sequence (Q9NZW5 125-219, limits assumed, looked up): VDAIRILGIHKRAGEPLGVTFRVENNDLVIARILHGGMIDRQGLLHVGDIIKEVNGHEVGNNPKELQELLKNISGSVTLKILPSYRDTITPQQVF
# T11: SHANK1, Q9Y566
# T11 sequence (Q9Y566 658-767, limits assumed, looked up): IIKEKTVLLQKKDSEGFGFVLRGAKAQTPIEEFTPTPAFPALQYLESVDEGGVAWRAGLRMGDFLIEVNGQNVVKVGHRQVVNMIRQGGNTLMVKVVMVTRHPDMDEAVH
# T12: MPDZ_12, O75970
# T12 sequence (O75970 1857-1958, limits assumed, looked up): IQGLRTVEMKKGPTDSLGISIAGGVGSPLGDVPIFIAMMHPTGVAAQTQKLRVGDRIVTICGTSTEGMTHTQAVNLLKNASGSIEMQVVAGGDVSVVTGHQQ
# B1: SLC9A3, P48764 (peptide)
# chain: PAALPESTHM
# B2: PALLS, Q8WX93;Q8WX93-1 (peptide)
# chain: NTALVESEDL
# B3: HNRNPK, P61978;P61978-2 (peptide)
# chain: VKQYADVEGF
# Columns and labels:
# Assay in all cases: holdup assay
# Parameters in all cases: key: below the threshold = too weak to quantify, mostly under pKd 3.1 to 4
# Settings in all cases: plain residues with an end cap or a label only (N-terminal biotin on a linker: ado-ado)
# GRIP1_7, Q9Y3R0 = target: T1, GRIP1_7, Q9Y3R0
# DLG4_3, P78352 = target: DLG4_3, P78352
# DLG4_3, P78352, sequence (P78352 306-403): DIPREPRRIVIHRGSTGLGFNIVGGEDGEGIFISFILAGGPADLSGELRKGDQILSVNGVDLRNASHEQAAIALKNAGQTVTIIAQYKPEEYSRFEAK
# GRIP1_3, Q9Y3R0 = target: T2, GRIP1_3, Q9Y3R0
# MAGI1_2, Q96QZ7 = target: MAGI1_2, Q96QZ7
# MAGI1_2, Q96QZ7, sequence (Q96QZ7 456-580): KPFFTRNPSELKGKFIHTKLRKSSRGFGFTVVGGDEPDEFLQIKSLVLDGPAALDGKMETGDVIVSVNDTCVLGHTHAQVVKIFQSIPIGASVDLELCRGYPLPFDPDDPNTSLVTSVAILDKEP
# GRID2IP_1, A4D2P6 = target: GRID2IP_1, A4D2P6
# GRID2IP_1, A4D2P6, sequence (A4D2P6 1-87): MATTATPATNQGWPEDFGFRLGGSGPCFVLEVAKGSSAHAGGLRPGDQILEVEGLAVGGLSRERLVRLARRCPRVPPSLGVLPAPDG
# NHERF2_2, Q15599 = target: NHERF2_2, Q15599
# NHERF2_2, Q15599, sequence (Q15599 142-238): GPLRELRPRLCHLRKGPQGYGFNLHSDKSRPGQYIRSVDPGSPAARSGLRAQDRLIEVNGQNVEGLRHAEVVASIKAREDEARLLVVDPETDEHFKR
# APBA1_2, Q02410 = target: T3, APBA1_2, Q02410
# SYNJ2BP, P57105 = target: T4, SYNJ2BP, P57105
# GRID2IP_2, A4D2P6 = target: GRID2IP_2, A4D2P6
# GRID2IP_2, A4D2P6, sequence (A4D2P6 272-370): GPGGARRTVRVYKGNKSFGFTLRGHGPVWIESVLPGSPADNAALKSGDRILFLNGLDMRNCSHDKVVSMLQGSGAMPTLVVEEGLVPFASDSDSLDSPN
# APBA3_1, O96018 = target: T5, APBA3_1, O96018
# MAGI1_1, Q96QZ7 = target: MAGI1_1, Q96QZ7
# MAGI1_1, Q96QZ7, sequence (Q96QZ7 1-106): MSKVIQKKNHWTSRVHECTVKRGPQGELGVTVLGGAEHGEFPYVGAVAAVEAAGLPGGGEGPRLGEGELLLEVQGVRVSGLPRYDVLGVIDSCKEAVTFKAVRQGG
# PDZD7_3, Q9H5P4 = target: T6, PDZD7_3, Q9H5P4
# DFNB31_3, Q9P202 = target: T7, DFNB31_3, Q9P202
# AHNAK1, Q09666 = target: AHNAK1, Q09666
# FRMPD2_3, Q68DX3 = target: FRMPD2_3, Q68DX3
# FRMPD2_3, Q68DX3, sequence (Q68DX3 1073-1166): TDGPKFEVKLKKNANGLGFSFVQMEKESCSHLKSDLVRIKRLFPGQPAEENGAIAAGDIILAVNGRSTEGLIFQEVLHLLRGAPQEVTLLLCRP
# DFNB31_1, Q9P202 = target: T8, DFNB31_1, Q9P202
# DLG4_2, P78352 = target: DLG4_2, P78352
# DLG4_2, P78352, sequence (P78352 155-259): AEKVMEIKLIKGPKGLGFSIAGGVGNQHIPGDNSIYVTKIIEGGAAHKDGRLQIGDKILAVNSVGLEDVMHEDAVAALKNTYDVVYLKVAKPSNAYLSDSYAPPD
# PDZRN4_1, Q6ZMN7 = target: PDZRN4_1, Q6ZMN7
# PDZRN4_1, Q6ZMN7, sequence (Q6ZMN7 213-318): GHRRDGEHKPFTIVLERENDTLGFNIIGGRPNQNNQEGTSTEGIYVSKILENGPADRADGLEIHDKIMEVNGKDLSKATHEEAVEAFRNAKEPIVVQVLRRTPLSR
# PTPN13_1, Q12923 = target: T9, PTPN13_1, Q12923
# DLG5_1, Q8TDM6 = target: DLG5_1, Q8TDM6
# DLG5_1, Q8TDM6, sequence (Q8TDM6 617-713): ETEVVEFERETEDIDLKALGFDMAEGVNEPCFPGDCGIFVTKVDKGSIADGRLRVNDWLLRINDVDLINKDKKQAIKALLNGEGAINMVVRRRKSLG
# MPP6, Q9NZW5 = target: T10, MPP6, Q9NZW5
# Inadl_8, Q8NI35 = target: Inadl_8, Q8NI35
# Inadl_8, Q8NI35, sequence (Q8NI35 1425-1530): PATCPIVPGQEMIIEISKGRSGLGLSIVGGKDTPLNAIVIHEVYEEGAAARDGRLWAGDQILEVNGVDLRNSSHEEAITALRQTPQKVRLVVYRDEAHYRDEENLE
# DLG1_1, Q12959 = target: DLG1_1, Q12959
# SHANK1, Q9Y566 = target: T11, SHANK1, Q9Y566
# TJP1_3, Q07157 = target: TJP1_3, Q07157
# TJP1_3, Q07157, sequence (Q07157 416-512): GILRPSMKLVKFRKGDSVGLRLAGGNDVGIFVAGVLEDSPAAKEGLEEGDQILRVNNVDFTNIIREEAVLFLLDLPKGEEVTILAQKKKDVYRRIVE
# MPDZ_12, O75970 = target: T12, MPDZ_12, O75970
binder,measurement,setting,value
B1,pKd,"GRIP1_7, Q9Y3R0",below the threshold
same,pKd,"DLG4_3, P78352",below the threshold
same,pKd,"GRIP1_3, Q9Y3R0",below the threshold
same,pKd,"MAGI1_2, Q96QZ7",below the threshold
same,pKd,"GRID2IP_1, A4D2P6",below the threshold
same,pKd,"NHERF2_2, Q15599",4.94
same,pKd,"APBA1_2, Q02410",below the threshold
same,pKd,"SYNJ2BP, P57105",below the threshold
same,pKd,"GRID2IP_2, A4D2P6",4.31
same,pKd,"APBA3_1, O96018",below the threshold
same,pKd,"MAGI1_1, Q96QZ7",below the threshold
same,pKd,"PDZD7_3, Q9H5P4",below the threshold
same,pKd,"DFNB31_3, Q9P202",below the threshold
same,pKd,"AHNAK1, Q09666",below the threshold
same,pKd,"FRMPD2_3, Q68DX3",below the threshold
same,pKd,"DFNB31_1, Q9P202",below the threshold
same,pKd,"DLG4_2, P78352",below the threshold
same,pKd,"PDZRN4_1, Q6ZMN7",below the threshold
same,pKd,"PTPN13_1, Q12923",below the threshold
same,pKd,"DLG5_1, Q8TDM6",below the threshold
same,pKd,"MPP6, Q9NZW5",below the threshold
same,pKd,"Inadl_8, Q8NI35",below the threshold
same,pKd,"DLG1_1, Q12959",below the threshold
same,pKd,"SHANK1, Q9Y566",4.78
same,pKd,"TJP1_3, Q07157",below the threshold
same,pKd,"MPDZ_12, O75970",below the threshold
B2,pKd,"GRIP1_7, Q9Y3R0",below the threshold
same,pKd,"DLG4_3, P78352",below the threshold
same,pKd,"GRIP1_3, Q9Y3R0",below the threshold
same,pKd,"MAGI1_2, Q96QZ7",below the threshold
same,pKd,"GRID2IP_1, A4D2P6",below the threshold
same,pKd,"NHERF2_2, Q15599",4.64
same,pKd,"APBA1_2, Q02410",below the threshold
same,pKd,"GRID2IP_2, A4D2P6",below the threshold
same,pKd,"APBA3_1, O96018",below the threshold
same,pKd,"MAGI1_1, Q96QZ7",below the threshold
same,pKd,"PDZD7_3, Q9H5P4",below the threshold
same,pKd,"DFNB31_3, Q9P202",below the threshold
same,pKd,"AHNAK1, Q09666",below the threshold
same,pKd,"FRMPD2_3, Q68DX3",below the threshold
same,pKd,"DFNB31_1, Q9P202",below the threshold
same,pKd,"DLG4_2, P78352",below the threshold
same,pKd,"PDZRN4_1, Q6ZMN7",below the threshold
same,pKd,"PTPN13_1, Q12923",below the threshold
same,pKd,"DLG5_1, Q8TDM6",below the threshold
same,pKd,"MPP6, Q9NZW5",below the threshold
same,pKd,"Inadl_8, Q8NI35",below the threshold
same,pKd,"DLG1_1, Q12959",below the threshold
same,pKd,"SHANK1, Q9Y566",below the threshold
same,pKd,"TJP1_3, Q07157",below the threshold
same,pKd,"MPDZ_12, O75970",below the threshold
B3,pKd,"GRIP1_7, Q9Y3R0",below the threshold
same,pKd,"DLG4_3, P78352",below the threshold
same,pKd,"GRIP1_3, Q9Y3R0",below the threshold
same,pKd,"MAGI1_2, Q96QZ7",below the threshold
same,pKd,"GRID2IP_1, A4D2P6",below the threshold
same,pKd,"NHERF2_2, Q15599",below the threshold
same,pKd,"APBA1_2, Q02410",below the threshold
same,pKd,"SYNJ2BP, P57105",below the threshold
same,pKd,"GRID2IP_2, A4D2P6",below the threshold
same,pKd,"APBA3_1, O96018",below the threshold
same,pKd,"MAGI1_1, Q96QZ7",below the threshold
same,pKd,"PDZD7_3, Q9H5P4",below the threshold
same,pKd,"DFNB31_3, Q9P202",3.98
same,pKd,"AHNAK1, Q09666",below the threshold
same,pKd,"FRMPD2_3, Q68DX3",below the threshold
same,pKd,"DFNB31_1, Q9P202",below the threshold
same,pKd,"DLG4_2, P78352",below the threshold
same,pKd,"PDZRN4_1, Q6ZMN7",below the threshold
same,pKd,"PTPN13_1, Q12923",below the threshold
same,pKd,"DLG5_1, Q8TDM6",below the threshold
same,pKd,"Inadl_8, Q8NI35",below the threshold
same,pKd,"DLG1_1, Q12959",below the threshold
same,pKd,"SHANK1, Q9Y566",below the threshold
same,pKd,"TJP1_3, Q07157",below the threshold
same,pKd,"MPDZ_12, O75970",below the threshold
